Results reported in patent US20080182978A1, “ANTI-NGF ANTIBODIES AND METHODS USING SAME” (RINAT NEUROSCIENCE CORP, priority 2002, published 2008).

Molecular target: human NGF (Homo sapiens, UniProt P01138)
Experiment: BIAcore screening assay of Fab library clones (koff)
Format: binding
Conditions: for binding affinity compared with the 8L2-6D5 template: single CDR3 mutation
Procedure: Small scale expression in 96 wells plates was optimized for screening Fab libraries. Starting from E. coli transformed with a Fab library, colonies were picked to inoculate both a master plate (agar LB+Ampicillin (50 μg/ml)+2% Glucose) and a working plate (2 ml/well, 96 well/plate containing 1.5 mL of LB+Ampicillin (50 μg/ml)+2% Glucose). Both plates were grown at 30° C. for 8-12 hours. The master plate was stored at 4° C. and the cells from the working plate were pelleted at 5000 rpm and resuspended with 1 mL of LB+Ampicillin (50 μg/ml)+1 mM IPTG to induce expression of Fabs. Cells were harvested by centrifugation after 5 h expression time at 30° C., then resuspended in 500 μL of buffer HBS-EP ([…] buffer pH 7.4, 150 mM NaCl, 0.005% P20, 3 mM EDTA). Lysis of HBS-EP resuspended cells was attained by one cycle of freezing (−80° C.) then thawing at 37° C. Cell lysates were centrifuged at 5000 rpm for 30 min to separate cell debris from supernatants containing Fabs. The supernatants were then injected into the BIAcore plasmon resonance apparatus to obtain affinity information for each Fab. Clones expressing Fabs were rescued from the master plate to sequence the DNA and for large scale Fab production and detailed characterization as described below.
Affinities of anti-NGF Fabs and monoclonal antibodies were determined using the BIAcore300™ surface plasmon resonance (SPR) system (BIAcore, INC, Piscaway N.J.). CM5 chips were activated with N-ethyl-N′-(3-dimethylaminopropyl)-carbodimide hydrochloride (EDC) and N-hydroxysuccinimide (NHS) according to the supplier's instructions. Human NGF was diluted into 10 mM sodium acetate pH 4.0 and injected over the activated chip at a concentration of 0.005 mg/mL. Using variable flow time across the individual chip channels, two ranges of antigen density were achieved: 100-200 response units (RU) for detailed kinetic studies and 500-600 RU for screening assays. The chip was blocked with ethanolamine. […] HBS-EP buffer (0.01M HEPES, pH 7.4, 0.15 NaCl, 3 mM EDTA, 0.005% Surfactant […]) was used as running buffer for all the BIAcore assays.
A screening BIAcore assay was optimized to determine the affinity of Fab clones from libraries. Supernatants of small culture lysates were injected at 50 μl/min for 2 min. Dissociation times of 10 to 15 minutes were used for determination of a single exponential dissociation rate (koff) using BIAevaluation software. […] Clones showing improved (slower) koff values were expressed at large scale and full kinetic parameters, kon and koff, were determined on purified protein. The assay was capable of detecting differences in affinity that were approximately 2-fold or larger.
For affinity screening experiments, each library was further paired with the corresponding CDR-grafted light or heavy chain (for example, the H1/H2 library was paired with CDR-grafted light chain), the antibody was expressed, and affinity to human NGF of the individual clones was screened using the BIACORE surface plasmon resonance (SPR) system (BIAcore, Inc. Piscataway, N.J.) according to the manufacturer's instructions and as described above. koff, kon and KD were determined. Antibody clones were ranked based on koff rates, since generally most variation in affinity is seen in koff rates, and further because koff rates are independent of antibody concentration.
20-80 clones from each small library were screened using BIAcore analysis as described herein. Samples were simultaneously analyzed by BIAcore for binding affinity to NGF in one channel of the BIAcore chip and for presence of Fab by binding to a penta-histag antibody in another channel of the sensor chip, to detect the his tag at the C terminus of the heavy chain. Clones that expressed protein were classified as having the same affinity, worse affinity, better affinity or no binding, using koff to classify: The results of this analysis are shown in Table 5.

[1] = Table 3: heavy chain library clones paired with 6D5 light chain
[2] = Table 3: light chain library clones paired with 8L2 heavy chain
[3] = Table 6: single CDR H3 or L3 mutation in 8L2-6D5 template

Chain of human NGF (P01138 122-241): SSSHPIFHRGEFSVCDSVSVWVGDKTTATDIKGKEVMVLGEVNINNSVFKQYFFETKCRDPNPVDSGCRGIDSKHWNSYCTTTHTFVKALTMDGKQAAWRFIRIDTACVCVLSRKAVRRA

Row | koff [2] | koff [3] [s⁻¹] | binding affinity compared with the 8L2-6D5 template | Molecule | other results
1 | **1e3 s-1 | 0.001 |  | 8L2-6D5: CDR-grafted antibody with V71K heavy chain framework substitution; template for affinity maturation (antibody, V domains shown) VH: QVQLQESGPGLVKPSETLSLTCTVSGFSLIGYDINWIRQPPGKGLEWIGMIWGDGTTDYNSALKSRVTISKDTSKNQFSLKLSSVTAADTAVYYCARGGYYYGTSYYFDYWGQGTLVTVS VL: DIQMTQSPSSLSASVGDRVTITCRASQDISNHLNWYQQKPGKAPKLLIYYISRFHSGVPSRFSGSGSGTDFTFTISSLQPEDIATYYCQQSKTLPYTFGQGTKLEIKRT | koff [1]: 0.001 s⁻¹; koff (Table 8: CDR L3 H3 combination mutations, 8L2-6D5 template): 0.001 s⁻¹; koff (template used to create the library): 1×10^−3 s^−
2 |  |  |  | H109: heavy chain library clone, CDRH1 SEQ ID NO:28, CDRH2 SEQ ID NO:29 (antibody, V domains shown) VH: QVQLQESGPGLVKPSETLSLTCTVSGFSLIGYDSNWIRQPPGKGLEWIGIIWGDGTTDYNSALKSRVTISKDTSKNQFSLKLSSVTAADTAVYYCARGGYYYGTSYYFDYWGQGTLVTVS VL: DIQMTQSPSSLSASVGDRVTITCRASQDISNHLNWYQQKPGKAPKLLIYYISRFHSGVPSRFSGSGSGTDFTFTISSLQPEDIATYYCQQSKTLPYTFGQGTKLEIKRT | koff [1]: 0.00016 s⁻¹
3 | 0.00046 s⁻¹ |  |  | L208: light chain library clone, CDRL1 SEQ ID NO:20, CDRL2 SEQ ID NO:21 (antibody, V domains shown) VH: QVQLQESGPGLVKPSETLSLTCTVSGFSLIGYDINWIRQPPGKGLEWIGMIWGDGTTDYNSALKSRVTISKDTSKNQFSLKLSSVTAADTAVYYCARGGYYYGTSYYFDYWGQGTLVTVS VL: DIQMTQSPSSLSASVGDRVTITCRASQYISNHLNWYQQKPGKAPKLLIYYTSRFHSGVPSRFSGSGSGTDFTFTISSLQPEDIATYYCQQSKTLPYTFGQGTKLEIKRT | 
4 |  | 0.00056 | significantly increased binding affinity | Y101W: 8L2-6D5 template with CDR H3 mutation Y101W (SEQ ID NO:46) (antibody, V domains shown) VH: QVQLQESGPGLVKPSETLSLTCTVSGFSLIGYDINWIRQPPGKGLEWIGMIWGDGTTDYNSALKSRVTISKDTSKNQFSLKLSSVTAADTAVYYCARGGYWYGTSYYFDYWGQGTLVTVS VL: DIQMTQSPSSLSASVGDRVTITCRASQDISNHLNWYQQKPGKAPKLLIYYISRFHSGVPSRFSGSGSGTDFTFTISSLQPEDIATYYCQQSKTLPYTFGQGTKLEIKRT | 
5 |  | 0.00016 | significantly increased binding affinity | G103A: 8L2-6D5 template with CDR H3 mutation G103A (SEQ ID NO:49) (antibody, V domains shown) VH: QVQLQESGPGLVKPSETLSLTCTVSGFSLIGYDINWIRQPPGKGLEWIGMIWGDGTTDYNSALKSRVTISKDTSKNQFSLKLSSVTAADTAVYYCARGGYYYATSYYFDYWGQGTLVTVS VL: DIQMTQSPSSLSASVGDRVTITCRASQDISNHLNWYQQKPGKAPKLLIYYISRFHSGVPSRFSGSGSGTDFTFTISSLQPEDIATYYCQQSKTLPYTFGQGTKLEIKRT | 
6 | 0.00045 s⁻¹ |  |  | L129: light chain library clone, CDRL1 SEQ ID NO:18, CDRL2 SEQ ID NO:19 (antibody, V domains shown) VH: QVQLQESGPGLVKPSETLSLTCTVSGFSLIGYDINWIRQPPGKGLEWIGMIWGDGTTDYNSALKSRVTISKDTSKNQFSLKLSSVTAADTAVYYCARGGYYYGTSYYFDYWGQGTLVTVS VL: DIQMTQSPSSLSASVGDRVTITCRASQSISNNLNWYQQKPGKAPKLLIYYTSRFHSGVPSRFSGSGSGTDFTFTISSLQPEDIATYYCQQSKTLPYTFGQGTKLEIKRT | 
7 | 0.00056 s⁻¹ |  |  | L97: light chain library clone, CDRL1 SEQ ID NO:22, CDRL2 SEQ ID NO:23 (antibody, V domains shown) VH: QVQLQESGPGLVKPSETLSLTCTVSGFSLIGYDINWIRQPPGKGLEWIGMIWGDGTTDYNSALKSRVTISKDTSKNQFSLKLSSVTAADTAVYYCARGGYYYGTSYYFDYWGQGTLVTVS VL: DIQMTQSPSSLSASVGDRVTITCRASQSISNQLNWYQQKPGKAPKLLIYYVSRFHSGVPSRFSGSGSGTDFTFTISSLQPEDIATYYCQQSKTLPYTFGQGTKLEIKRT | 
8 |  | 0.00025 | significantly increased binding affinity | S91E: 8L2-6D5 template with CDR L3 mutation S91E (SEQ ID NO:50) (antibody, V domains shown) VH: QVQLQESGPGLVKPSETLSLTCTVSGFSLIGYDINWIRQPPGKGLEWIGMIWGDGTTDYNSALKSRVTISKDTSKNQFSLKLSSVTAADTAVYYCARGGYYYGTSYYFDYWGQGTLVTVS VL: DIQMTQSPSSLSASVGDRVTITCRASQDISNHLNWYQQKPGKAPKLLIYYISRFHSGVPSRFSGSGSGTDFTFTISSLQPEDIATYYCQQEKTLPYTFGQGTKLEIKRT | 
9 | 0.00074 s⁻¹ |  |  | L81: light chain library clone, CDRL1 SEQ ID NO:24, CDRL2 SEQ ID NO:25 (antibody, V domains shown) VH: QVQLQESGPGLVKPSETLSLTCTVSGFSLIGYDINWIRQPPGKGLEWIGMIWGDGTTDYNSALKSRVTISKDTSKNQFSLKLSSVTAADTAVYYCARGGYYYGTSYYFDYWGQGTLVTVS VL: DIQMTQSPSSLSASVGDRVTITCRAFQAISNQLNWYQQKPGKAPKLLIYYISRFHTGVPSRFSGSGSGTDFTFTISSLQPEDIATYYCQQSKTLPYTFGQGTKLEIKRT | 
10 |  | 0.00064 | significantly increased binding affinity | S105T: 8L2-6D5 template with CDR H3 mutation S105T (SEQ ID NO:48) (antibody, V domains shown) VH: QVQLQESGPGLVKPSETLSLTCTVSGFSLIGYDINWIRQPPGKGLEWIGMIWGDGTTDYNSALKSRVTISKDTSKNQFSLKLSSVTAADTAVYYCARGGYYYGTTYYFDYWGQGTLVTVS VL: DIQMTQSPSSLSASVGDRVTITCRASQDISNHLNWYQQKPGKAPKLLIYYISRFHSGVPSRFSGSGSGTDFTFTISSLQPEDIATYYCQQSKTLPYTFGQGTKLEIKRT | 
11 |  |  |  | H19: heavy chain library clone, CDRH1 SEQ ID NO:30, CDRH2 SEQ ID NO:31 (antibody, V domains shown) VH: QVQLQESGPGLVKPSETLSLTCTVSGFSLIGYDLNWIRQPPGKGLEWIGIIWGDGTTDYNSAVKSRVTISKDTSKNQFSLKLSSVTAADTAVYYCARGGYYYGTSYYFDYWGQGTLVTVS VL: DIQMTQSPSSLSASVGDRVTITCRASQDISNHLNWYQQKPGKAPKLLIYYISRFHSGVPSRFSGSGSGTDFTFTISSLQPEDIATYYCQQSKTLPYTFGQGTKLEIKRT | koff [1]: 0.00024 s⁻¹
12 |  | 0.00051 | significantly increased binding affinity | S105A: 8L2-6D5 template with CDR H3 mutation S105A (SEQ ID NO:47) (antibody, V domains shown) VH: QVQLQESGPGLVKPSETLSLTCTVSGFSLIGYDINWIRQPPGKGLEWIGMIWGDGTTDYNSALKSRVTISKDTSKNQFSLKLSSVTAADTAVYYCARGGYYYGTAYYFDYWGQGTLVTVS VL: DIQMTQSPSSLSASVGDRVTITCRASQDISNHLNWYQQKPGKAPKLLIYYISRFHSGVPSRFSGSGSGTDFTFTISSLQPEDIATYYCQQSKTLPYTFGQGTKLEIKRT | 
